In this experiment the target is histones. The experiment can be described thus: ELISA. For orientation: An ELISA detects its analyte on a solid surface through an enzyme-linked reagent.

As a reminder, the Kd is a measure of binding affinity in units of concentration. Read a high Kd as weaker binding.

B1: murine IMMU-H4 antibody (antibody, V domains shown)
VH: QVQLQQSGAELVRPGASVKLSCTASGFNIKDDYLHWVKQRPEQGLEWIGWIDPENGDTEYASKFQGKATITADTSSNTAYLQLSSLTSEDTAVYYCSSPLVHLRTFAYWGQGTLVTVS
VL: DIQLTQSPASLAVSLGQRATISCRASESVDSYDNSLHWFQQKPGQPPKLLIYLASNLESGVPARFSGSGSRTDFTLTIDPVEADDAATYYCQQNNEDPWTFGGGTKLEIKR
For the molecule B1, the Kd worked out at 6.6 nM.

For the origin of these results see patent US20170218059A1.
